Reference: the DeepSol protein solubility set

Assay: soluble on expression in E. coli; label from the status in PepcDB or PDB records

Sequence	soluble on expression in E. coli
MTTINPTNYTLLKKQAASLIEDEHHMIAILSNMSALLNDNLDQINWVGFYLLEQNELILGPFQGHPACVHIPIGKGVCGTAVSERRTQIVADVHQFEGHIACDANSKSEIVVPIFKDDKIIGVLDIDAPITDRFDDNDKEHLEAIVKIIEKQLA	not soluble
MKANRSIACLLLAALPTLASAHVAEKVETLHDQALAEIPGHRGLMLTVSFKPGQVSAPHVHPGSVFVYVLEGTVQTQLEGGSVETYTVGQSWYEPANVPHLLARNPDPMKPAKLLVWELLKEGDPILKPLERGAH	not soluble
MLELDTRQIRMGQRAADKAEALRLLGAALVADGLAAPGYAEGLKAREAQGSTYLGQGIAIPHGTPDTRELVFSTGVRLLQFPEGVDWGDGQQVYLAIGIAAKSDEHLQLLQLLTRALGEADLGPALSAAASAEEVLGLLQGAPQELALDAQLVGLGQNAEDLDELAWLGARLLKKAGCVENGFAAVLQQTEPLPLGDGLCWLHSEQLVKRPGLAFVTPAQPLQHQGQLVTGLFCLASLGEAHQALLERLCDLLLEGRGAELVRATSSRSVLAALGGELPPDWPSARAVLANPHGLHARPAQALAQLAKGFAGEIRVRLADSEAAPVSAKSLSKLLALGARRGQTLEFSAEPAIAEDALPALLAAVREGLGEEVEALAEEALPDAVGEAEEDARPAPLRAGERLQAIAASPGIASGPAHVQVAQRFEFQPRGESPAHERERLLRAKRAVDEEIVGLVERSTVKAIREIFVTHREMLDDPELAEQVQLRLNRGESAEAAWSRVVEDSAAQQEALHDALLAERAADLRDLGRRVLARLCGVEAPREPEQPYILVMDEVGPSDVARLDAQRVAGILTARGGATSHSAIIARALGIPALVGAGAAVLGLEPGTALLLDGEHGWLQVAPSTEQLQQAAAERDARQQRQARADAQRLEPARTRDGHAVEVCANLGDTAGAARAVELGAEGVGLLRTEFVFMNNARAPDLATQEAEYRRVLDALDGRPLVARTLDVGGDKPLPYWPIPHEENPYLGLRGIRLTLQRPQILETQLRALFRAAGERPLRVMFPMVGSLDEWRQARDLALRLREEIPLADLQLGIMVEVPSAALLAPVLAREVDFFSVGTNDLTQYTLAIDRGHPSLSAQADGLHPAVLQLIDMTVRAAHAEGKWVGVCGELAADPLALPLLVGLGVDELSVSARSIALVKAGVRELQLVAARGLARKALGLASAAEVRA	not soluble
MKKKPLTPEQLDDAKRLKELFNAKKKALGISQESVAHELGVGQSAVNQFLNGVNPLNITNAAAFAKVLNEPISSFSPSLAKELAKMAESLSITTRSGAKDKPAVSVANSYPLISWISAGNWYEAIEPYTLRDIEIWPESTKHAHESAFWLSVKGDSMTSPSGISFPEGMIILVDPEKEPMPGNFVIAKLTDDNEATFKKLVVDAGIKYLKPLNPAYRLIELNGNCKILGVVVDARWLQID	not soluble
GSHMSKKILIVESDTALSATLRSALEGRGFTVDETTDGKGSVEQIRRDRPDLVVLAVDLSAGQNGYLICGKLKKDDDLKNVPIVIIGNPDGFAQHRKLKAHADEAVAKPVDADQLVERAGALIGFPE	soluble
MSLNESEEKNSNSTYSFFFKNLSVTGFYEENCLFMTVKELFDNSIDALCNNKGDENIDEEGQGTQEKKIEIEIKEYGINSSFYEIICRDNGEGIEVKDLEKISEMFLTSKEKCITSGKFGIGLKTILLYSFKTAYGFLHIKIKVKKNKIWDFILVLDKNLNHTFVQNFKEYIDDKWEWTIEISVILKINNNYISDKKIHSYIKLFLLWKKNITVKYIHNPNGEQSIYTYSSHSDTSEENILSMLANNSINMIFKKDFLTSYNYDVNMYVNVRKSEKIIPYEHGHNIGFLFLIRYVNSMPLLRTSSSDCSITVDFRNFLKYYGPQFGIELPTIESRDEMILEELALPSCFDDLNKVANIFPVKRSEEGHHHHHH	soluble
GSGKNLIMIQVEALQGFVVNKSINGKEITPNLNKWINKSLYFDNYFYQVAQGNTSDAEFMSLNSLYPAQSGAAYYTYAGNTFNSIPKDLGDKGYYTAALHGYNEGFWNRNVMYKSEKFDDFYGQTSYKNDEVVGMGLSDESFLNQSLAKMKTFKQPYFSFLITLSSHYPFNDTAGYEKYTMNKLDVGEYKDTLLGNYFEGIHYTDEQLGKFLDKLDKEGLTKNSIIVLYGDHFAIPKENINQLYSFEGIKDPTDLTWYEYQKVPMFIHFPDDEHKGVNHTYSGQMDIYPTIANLYNISNNYMFGEDILNVKDGDSTNVTFRNGSFTDGK	not soluble
MGSDKIHHHHHHMASMFNRVPPLHLLVAFEAAARLGSFARAAEELSVTPSAVSHRIKNLEELWGEDLFVRSNAALRLTAAGTRYLRNVQDALKSLNELARPEYNKMRTRLRVAIPPTFGRQHLVPRLPEFGALYPHIDIELHLAIPFLDVKAEDTDVEIRYGTGRYPDLKTTKLLVEPVFPACGREYYERVNGRAITKPEHLHGLVLLRSPLEPWKPWFETAGLDWPEPQTGPQLNDIGLMLEAVASNQGVALVRQRMARHWLSLGQMVRLLDIESVSPHGYYIVEREQAPLKPEARYFVDWLLSLDW	not soluble
MSISIMTETRPESAEQQHHEVLQRPSDEPCSGCKQLQKDVAKTISMVMERMDKLQYRLDELLKENNELKSSSVSSGKASPSPAESRSSPKLVETVVAPVSGARKRKPKERSPPAAASPLPDFSNLMNGFMFDPLNMSNPNGMMQLLSMVQQQQQQQQHHQHIENQQSVSPPQSKSVKIEDPMDQDVKQEESERSDIPTATEAQNLLDALTAQFSSNGQATSTTSPPSSSSQVQAVIEAVATPSSQSQDSSMFEKTETSGDPNAARCSNCRTDKTTAWRRDAEGKLVCNPCGLYYRLHKVRRPIEMRKNHIQQRYRRKNKEKESSAATQIFNQLLTQMPTMATGGVSTDGAINTFNLLEQISQFTQAQELMNSSATF	not soluble
MCNTNMSVPTDGAVTTSQIPASEQETLVRPKPLLLKLLKSVGAQKDTYTMKEVLFYLGQYIMTKRLYDEKQQHIVYCSNDLLGDLFGVPSFSVKEHRKIYTMIYRNLVVVNQQESSDSS	soluble
MIDFNQLDDLARRLSDLVPPGLRQSREELQSTFKGALQAGLGKLDLVTREEFDVQRAVLLRTREKLDALEQTVAALEARSGNAPPTSPTP	not soluble
MKKKIIIAIVASAITMTHFVGNTYADSKTEVSVTAPYNTNQIAKWLEAHAKPLKTTNPTASLNDLKPLKNMVGSASIVGLGEATHGAHEVFTMKHRIVKYLVSEKGFTNLVLEEGWDRALELDRYVLTGKGNPSQHLTPVFKTKEMLDLLDWIRQYNANPKHKSKVRVIGMDIQSVNENVYNNIIEYIKANNSKLLPRVEEKIKGLIPVTKDMNTFESLTKEEKEKYVLDAKTISALLEENKSYLNGKSKEFAWIKQNARIIEQFTTMLATPPDKPADFYLKHDIAMYENAKWTEEHLGKTIVWGHNGHVSKTNMLSFIYPKVAGQHLAEYYGKRYVSIGTSVYEGQYNVKNSDGEFGPYGTLKSDDPNSYNYIFGQVKKDQFFIDLRKANGVTKTWLNEQHPIFAGITTEGPDIPKTVDISLGKAFDILVQIQKVSPSQVHQLEHHHHHH	soluble
EAGAPCGRISFALRYLYGSDQLVVRILQALDLPAKDSNGFSDPYVKIYLLPDRKKKFQTKVHRKTLNPIFNETFQFSVPLAELAQRKLHFSVYDFDRFSRHDLIGQVVLDNLLELAEQPPDRPLWRDILEGGSEKADLGELNFSLCYLPTAGLLTVTIIKASNLKAMDLTGFSDPYVKASLISEGRRLKKRKTSIKKNTLNPTYNEALVFDVAPESVENVGLSIAVVDYDCIGHNEVIGVCRVGPEAADPHGREHWAEMLANPRKPVEHWHQLVEEKTLSSFTKGGKGLSEKENSE	soluble
GPGSMDPTLKELLHANLEWIFVGGKGGVGKTTTSCALATLFATTPISDAASPGGTRPRRVLLISTDPAHNLSDAFNQRFGPHPTPVKGLEESLAAMEVDPKNFTHGALMSSLTGAKSDGSASSLSAEAEADAAQHTASFARIGAVLKEAARTMPGIDEISVFAEILHYVRTLFYDLLIFDTAPTGHTLRLLALPQTLSSTFDKLMSLEGLAPMIEAASHLIGTNLGALGGACGDTAGSCEQATAAPSLSSAAPGEGSAAAASSQSRWCITADEVRSTALHWRQTMEEVQARFNDPNRTSFVCVCIAEFLSVYETERLVQELMKYNIGCDSIVVNQLVLKPSSEPPCRMCSARQKIQAKYLEQIDLLYEDFHVVKMPLLSDEVRGVPALKKFARFLQEPYSPDTHGYIDVQEPC	not soluble
MRADELPSKEEIEMHKDSCKYFSNDTEEEETEDEEENGEVAHAKAVAEEFGKSSKSKNVSSSMELDDEVAEGLKELDMDNYDEEDDGIEIFSSGRGDLYYKSNEMDPYLKRNDDHDDDSDDDPPILPTDLVIVCAMTDDKEANRLDVYVSEDTSHGSPNMYNHHYRIIPAIPLCTAWLDCPLKGGERGNFLAVGSDGTPTIEIWDLDAWFDMLPCVQLGGQNKEGNYKQGSHTRSVLGLAWNKEFRNILASASADKKVKVWDVATGTCKITMEHHTKEVQAVAWNHYAPEVLLSGSFDQTVVLKDGRQPSHSGFKWSVMSDVESLAWDPHSEHSFVVSLEDGTVKGFDVRQASISASESNPSFTINGHDEAATSVSYNISAPNLLATGSKDRTVKLWDLSNNEPSCIATHNPNAGGLFFIAFSPDNPFLLAMGGVMGELKLWDTLSDTNVSSRYGSREVRP	soluble
MGSDKIHHHHHHMIRREDYQYLRKLNDFRYFSIEQFDKIVGQMEFRKAKKDHILFFEGDKRDKLFLVTSGYFKVEQSDQSGTFMYTDFIRHGTIFPYGGLFTDDYYHFSVVAMTDVTYFYFPVDLFEDYSLENRLQMKHLYSKMSKLLELHELRVRNLITSSASSRVIQSLAILLVEMGKDSDTLPFQLTTTDIAQISGTTRETVSHVLRDLKKQELITIKGKYLTYLDKDYFLQYTK	not soluble
MSLSGKVGAPTLEVLRTAVSKRWSANSDLIDAIEHVSRQALLELAERAGQVDEVEDQLFRFSRILDVQPRLAILLGDCAVPAEGRVRLLRKVLERADSTVNPVVVALLSHTVELLRGQAVEEAVLFLAEVAVARRGEIVAQVGAAAELSDAQRTRLTEVLSRIYGHPVTVQLHIDAALLGGLSIAVGDEVIDGTLSSRLAAAEARLPDEGHHHHHH	not soluble
MNIGVIILAAGEGKRFGGDKLLAKIDNTPIIMRTIRIYGDLEKIIIVGKYVNEMLPLLMDQIVIYNPFWNEGISTSLKLGLRFFKDYDAVLVALGDMPFVTKEDVNKIINTFKPNCKAVIPTHKGERGNPVLISKSLFNEIEKLRGDVGARVILNKIKIEELCFIECSEGVLIDIDKKEDLMRLRDFHPLEHHHHHH	soluble
MKFDVIIVGAGPGGMFAAYKLAGKLNTAIFEMGRDISKRKCPSDLSESYCTKCNPCNITSGVGGAGGLSDGKLNYVHPEYPSSFSVGGDFDFLDPNYLIEKMNEVDEIFLKHGAPDELYGDDLEKIEDFLKRANAAGIEFVPLRQRHVGSDELPKVVKSIEDKLKKEGVKIYTRKTVVDIDPERKVVRTEKGEEFGYDYLIIAVGRSGASWLEKWARDYNLEVAENSKAIDVGVRVEVPASIMDDITSAIYDPKLRVITKRHDDYMRTFCTCPRGWVIREDYGDFCLVNGHSKAKEKSSNTNFALLGHYEFTEPFDEPNEWGRDLARITTKLGGGNPIVQRLKDLRLGRRSTESRIKNNRLVQPTLKTAIPGDISLAYPGRAIDDILDALERLDKVIPGVADDSTLLYAPEVKFYSLKLKVDEWMKTNIPYIYAIGDGAGVSRGIVGAAVTGLIAAEGILRERGMELEHHHHHH	soluble
